Experiment [1] has as its system phosphorylated FGFR in SNU-16 cells. Put plainly: Inhibition of FGFR2 signaling in SNU-16 cells (Western blot of pFGFR). Format: cell-based. The settings on record: antibody 10 μg/ml, 2 hours; for FGF10-induced FGFR phosphorylation: FGF10 10 ng/ml. The method, then: Inhibition of the FGFR2 signaling pathway by the humanized antibodies was investigated. SNU-16 cells were grown in RPMI-1640 medium with 10% FBS, collected and washed twice with free medium and then seeded in 12-well plates at 1.5E6 cells/well in serum-free RPMI-1640. The plates were incubated at 37° C., 5% CO2, and 95% humidity in an incubator overnight. Anti-FGFR2b antibodies at a concentration of 10 μg/ml were added to the assay plates. Recombinant human FGF7 or FGF10 protein (10 ng/ml) in the presence of heparin (5 μg/ml) was added to the assay plates. The plates were incubated in a 37° C., 5% CO2, 95% humidity incubator for 2 hours. Following 2 hours incubation, cells were collected and washed twice with cold PBS. NP40 lysis buffer containing 1×PMSF and 1× Protease plus phosphatase inhibitors were added to the cell pellets. The mixture was pipetted up and down to suspend the pellet. The mixture was inverted gently and each placed for 10 minutes on ice, for a total of 30 minutes. The mixture was centrifuged at 12000× rpm for 10 minutes to pellet the cell debris. The supernatant was transferred to a new tube to quantify total protein concentration by BCA Kit. The protein samples were then split and stored at −80° C. for further Western blotting to detect the expression of pFGFR and total FGFR2.
Western blotting procedure: The completely thawed protein samples were mixed with 4×SDS loading buffer and were heated for 10 min at 37° C. Then the mixtures were centrifuged at ˜3500×rpm for 5 min. Equal amounts of proteins were loaded into an SDS-PAGE gel, whereafter proteins were transferred to PVDF membranes using iBlot. The membranes were then subjected to Western blotting analysis, focusing on phosphorylated FGFR and total FGFR2.
For orientation: In western blotting, separated proteins are transferred to a membrane and probed.

Experiment [2] deals with T1, soluble human FGFR2b proteins (Homo sapiens, UniProt P21802).
T1 construct: soluble human FGFR2b proteins (his tag, in-house generated); His tag; made in house
Put plainly: SPR binding kinetics (Biacore 8K, Example 5). The settings on record: room temperature. How it is done:
The binding affinity and kinetics of purified anti-FGFR2b antibodies were determined by surface plasmon resonance (Biacore 8K, GE Life Sciences) at room temperature. Briefly, mouse anti-human IgG Fc antibody was immobilized via amine coupling onto a activated CM5 biosensor chip (Cat. No. BR100530, GE Life Sciences). Purified monoclonal antibody candidates were flowed over the chip surface and captured by anti-human IgG antibody. Then a serial dilution of soluble human FGFR2b proteins (his tag, in-house generated) were injected over the antibodies captured surface and changes in surface plasmon resonance signals were analyzed to calculate the association rates (kon) and dissociation rates (koff) by using the one-to-one Langmuir binding model (BIA Evaluation Software, GE Life Sciences). The equilibrium dissociation constant (KD) was calculated as the ratio koff/kon.

Experiment [3] deals with Cyno FGFR2b. The experiment in a line: ELISA binding to recombinant cyno FGFR2b (Example 11). A general note: In an ELISA, binding on a coated surface is turned into a signal by an enzyme label.
Experiment [4] concerns the target T2, human FGFR2b (Homo sapiens, UniProt P21802). Put plainly: ELISA binding to recombinant human FGFR2b (Example 11).
The target of a further experiment is T3, Mouse FGFR2b (Mus musculus, UniProt P21803).
T3 construct: expressed in transfected cells; host or cells: Expi293
The experiment in a line: FACS binding on Expi293 cells, mouse FGFR2b (Example 10). The following applies: Expi293 cells overexpressing mouse FGFR2b. How it is done:
(§1) To evaluate the binding activity of anti-FGFR2b antibodies to native FGFR2b on living cells, Expi293 cells were engineered to overexpress human FGFR2b, cyno FGFR2b, mouse FGFR2b, or human FGFR2c. Expi293 cells expressing antigens were seeded in 96-well plates, and were incubated with serially diluted anti-FGFR2b antibodies. Goat anti-human IgG [Alexa Fluor® 647] […] The change of mean fluorescent intensity (MFI) of humanized candidates BGAh9239 and BGAh9179 was measured by flow cytometry. EC50 values for dose-dependent binding to native human FGFR2b, cyno FGFR2b, mouse FGFR2b, and human FGFR2c were determined using sigmoidal dose-response curves of nonlinear fit from GraphPad Prism™.
(In general: In flow cytometry, cells or beads pass a laser one at a time.)

The target of experiment [5] is T2, human FGFR2b. The experiment in a line: SPR affinity determination, human FGFR2b (Example 9). Format: binding. The settings on record: for Kd: kd/ka. The method, then:
(§2) For affinity determination, antibodies were captured by anti-human Fc antibodies, and used in the affinity assay based on surface plasmon resonance (SPR) technology. SPR signals were analyzed to calculate the association rates (ka) and dissociation rates (kd) by using the one-to-one Langmuir binding model (BIA Evaluation Software, GE Life Sciences). The equilibrium dissociation constant (KD) was calculated as the ratio of kd/ka. Rmax represents the maximal feasible SPR signal generated by an interaction between a ligand-analyte pair and is represented in response units (RU). BGAh9239 and BGA9179 show similar binding profiles to human FGFR2b and cyno FGFR2b, and are similar to their parental antibodies BGAm1823 and BGAm1371, respectively.

Experiment [6] concerns the target T4, Human FGFR2c (Homo sapiens, UniProt P21802). Put plainly: ELISA binding to recombinant human FGFR2c (Example 11). The settings on record: for Emax (A450): human FGFR2c; for binding to human FGFR2c: in words.
In experiment [7] the target is T2, human FGFR2b. Put plainly: FACS binding to native FGFR2b on Expi293 cells, human FGFR2b (Example 10). The following applies: Expi293 cells overexpressing human FGFR2b. How it is done:
as §1

The target in experiment [8] is T4, Human FGFR2c. Put plainly: FACS binding on Expi293 cells, human FGFR2c (Example 10). The following applies: for Emax (MFI): Expi293 cells overexpressing human FGFR2c. The method, then: as §1
Experiment [9] deals with Cyno FGFR2b. Put plainly: SPR affinity determination, cyno FGFR2b (Example 9). Format: binding. The method, then:
as §2

In a further experiment the test system is BaF3_hFGFR2b OE cells. The experiment in a line: Ligand-induced proliferation inhibition assay in BaF3_hFGFR2b OE cells. Format: cell-based. The following applies: antibody 10 μg/ml, heparin 5 μg/ml, 72 hours. The method, then: The inhibition activity of antibody on ligand-induced cell proliferation was evaluated in an FGFR2b engineered BaF3 cell line system (BaF3_hFGFR2b OE). BaF3 cells are dependent on interleukin-3 (IL-3) for growth. The BaF3 system allows for testing of kinases and kinase inhibitors. Some protein kinases can render BaF3 cells to be independent of IL-3, whereas kinase inhibitors antagonize this effect. Cells were seeded in 96-well plates at 30,000 cells/well in RPMI-1640 medium containing 10% fetal bovine serum. Anti-FGFR2b antibodies at a concentration of 10 μg/ml were added to the assay plates. Recombinant human FGF7 or FGF10 protein (40 ng/ml) in the presence of heparin (5 μg/ml) was added to the assay plates. The plates were incubated at 37° C., 5% CO2, 95% humidity in an incubator for 72 hours. Following incubation, 50 μl Cell Titer Glo reagent was added to each well and the plates were mixed for 1 min and then incubated at RT for 10 min. Luminescence signals were detected and recorded.
The Ba/F3 system is used to investigate downstream oncogenic signaling pathways and the susceptibility of driver variants to therapeutics. Driver-addicted Ba/F3 cells die when the driver-engaged signaling pathway is inhibited, and this effect can be rescued by re-introduction of […].
FIGS. 6 and 7 show the results of Ba/F3 proliferation assays. The net growth on Ba/F3 cells overexpressing FGFR2b is reported after treatment with anti-FGFR2b antibodies of the present disclosure. Normal Ba/F3 cells die shortly after withdrawal of exogenous […]. […] Comparator BGA2311 binds at the N-terminus and is not considered to be a ligand blocker. Thus, BGAm1371 may partially block the FGFR2b signaling pathway, such as the signaling pathway mediated by FGF7.

For orientation: Kd means the free concentration of one partner at which half of the binding sites on the other are occupied at equilibrium, for simple one-to-one binding. One may read the EC50 as the midpoint of the concentration-response curve.

T3 sequence (P21803 22-707 isoform P21803-2 limits assumed): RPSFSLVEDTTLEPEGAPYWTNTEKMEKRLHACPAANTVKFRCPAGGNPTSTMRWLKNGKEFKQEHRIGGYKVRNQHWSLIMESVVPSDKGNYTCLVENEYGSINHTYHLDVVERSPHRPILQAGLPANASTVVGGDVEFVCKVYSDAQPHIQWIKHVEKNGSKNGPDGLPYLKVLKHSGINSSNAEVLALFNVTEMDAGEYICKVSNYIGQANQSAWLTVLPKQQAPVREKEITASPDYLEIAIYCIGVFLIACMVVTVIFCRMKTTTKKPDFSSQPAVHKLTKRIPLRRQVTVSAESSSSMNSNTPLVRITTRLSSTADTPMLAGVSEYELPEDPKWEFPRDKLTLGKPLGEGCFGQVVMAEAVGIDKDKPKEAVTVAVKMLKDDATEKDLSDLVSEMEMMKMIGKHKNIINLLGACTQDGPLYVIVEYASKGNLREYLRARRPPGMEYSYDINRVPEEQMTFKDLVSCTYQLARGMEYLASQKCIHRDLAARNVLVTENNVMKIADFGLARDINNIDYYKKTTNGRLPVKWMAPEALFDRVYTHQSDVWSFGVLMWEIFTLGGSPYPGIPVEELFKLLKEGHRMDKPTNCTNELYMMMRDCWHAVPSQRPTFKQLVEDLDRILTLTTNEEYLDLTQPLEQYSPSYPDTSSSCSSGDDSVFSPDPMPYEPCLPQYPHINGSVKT
T1 sequence (P21802 22-378 isoform P21802-3 limits assumed): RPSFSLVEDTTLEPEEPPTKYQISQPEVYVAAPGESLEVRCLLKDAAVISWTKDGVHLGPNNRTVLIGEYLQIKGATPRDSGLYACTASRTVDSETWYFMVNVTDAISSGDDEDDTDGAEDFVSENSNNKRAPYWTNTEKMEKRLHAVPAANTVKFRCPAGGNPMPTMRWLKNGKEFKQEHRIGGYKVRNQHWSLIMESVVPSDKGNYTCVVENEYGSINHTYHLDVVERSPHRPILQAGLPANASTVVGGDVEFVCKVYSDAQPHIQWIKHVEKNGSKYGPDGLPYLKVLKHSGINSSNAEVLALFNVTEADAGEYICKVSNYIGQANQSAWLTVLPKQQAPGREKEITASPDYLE
T4 sequence (P21802 22-821): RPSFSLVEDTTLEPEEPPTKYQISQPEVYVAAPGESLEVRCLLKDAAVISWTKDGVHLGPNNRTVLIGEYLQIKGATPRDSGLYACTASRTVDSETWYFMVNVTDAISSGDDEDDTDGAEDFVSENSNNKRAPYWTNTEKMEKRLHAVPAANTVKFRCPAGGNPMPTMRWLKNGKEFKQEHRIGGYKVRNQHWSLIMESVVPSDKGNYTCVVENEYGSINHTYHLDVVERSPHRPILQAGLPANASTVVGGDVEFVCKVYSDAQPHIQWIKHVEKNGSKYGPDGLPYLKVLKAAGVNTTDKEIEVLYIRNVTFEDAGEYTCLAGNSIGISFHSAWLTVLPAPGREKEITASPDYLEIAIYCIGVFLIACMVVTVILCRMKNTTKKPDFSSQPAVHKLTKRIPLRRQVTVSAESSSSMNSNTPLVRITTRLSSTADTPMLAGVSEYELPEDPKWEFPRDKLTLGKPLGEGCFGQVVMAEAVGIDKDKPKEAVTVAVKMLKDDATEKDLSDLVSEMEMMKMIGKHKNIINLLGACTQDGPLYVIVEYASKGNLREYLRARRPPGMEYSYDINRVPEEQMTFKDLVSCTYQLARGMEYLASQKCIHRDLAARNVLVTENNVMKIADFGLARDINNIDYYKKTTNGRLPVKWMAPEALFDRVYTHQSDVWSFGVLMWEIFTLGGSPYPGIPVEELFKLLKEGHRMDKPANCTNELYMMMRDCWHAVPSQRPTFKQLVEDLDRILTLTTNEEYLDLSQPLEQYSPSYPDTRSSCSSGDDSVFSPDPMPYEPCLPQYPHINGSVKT
T2 sequence (P21802 22-822 isoform P21802-3 limits assumed): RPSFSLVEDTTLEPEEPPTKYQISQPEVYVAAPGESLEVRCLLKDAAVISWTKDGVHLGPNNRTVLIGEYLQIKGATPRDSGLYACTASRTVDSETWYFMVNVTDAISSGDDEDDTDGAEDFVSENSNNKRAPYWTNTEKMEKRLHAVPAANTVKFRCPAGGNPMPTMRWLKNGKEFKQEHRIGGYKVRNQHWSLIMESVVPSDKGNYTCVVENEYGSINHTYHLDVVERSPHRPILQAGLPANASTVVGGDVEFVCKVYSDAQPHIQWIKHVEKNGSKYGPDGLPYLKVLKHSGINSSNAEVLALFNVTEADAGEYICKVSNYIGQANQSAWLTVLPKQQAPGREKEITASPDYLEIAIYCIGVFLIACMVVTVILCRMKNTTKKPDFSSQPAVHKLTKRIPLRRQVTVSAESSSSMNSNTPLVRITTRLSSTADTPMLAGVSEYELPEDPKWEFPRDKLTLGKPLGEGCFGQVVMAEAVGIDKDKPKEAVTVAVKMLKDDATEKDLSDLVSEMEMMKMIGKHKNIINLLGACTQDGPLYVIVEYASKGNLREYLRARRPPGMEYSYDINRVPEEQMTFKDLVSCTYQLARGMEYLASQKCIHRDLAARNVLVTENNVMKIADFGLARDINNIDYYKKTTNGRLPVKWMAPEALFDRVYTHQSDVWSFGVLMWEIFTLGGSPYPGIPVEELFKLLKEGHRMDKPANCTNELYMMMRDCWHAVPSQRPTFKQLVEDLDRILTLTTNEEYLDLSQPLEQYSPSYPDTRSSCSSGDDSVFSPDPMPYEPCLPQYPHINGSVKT

B1: BGAh9179: humanized anti-FGFR2b IgG1 antibody from murine BGAm1371; VH SEQ ID NO: 21, VL SEQ ID NO: 22 (antibody, V domains shown)
VH: QVQLVQSGAEVKKPGASVKVSCKASGYTITDTYIHWVRQAPGQGLEWMGRIDPAEGNTMFASEFQGRVTMTADTSTSTVYMELSSLRSEDTAVYYCARSKIHYDYDEGFAYWGQGTLVTVSS
VL: DIVLTQSPDSLAVSLGERATINCRASESVDDYGYSFLHWYQQKPGQPPKLLIYRASNLESGVPDRFSGSGSGTDFTLTISSLQAEDVAVYYCQQSNQNPRTFGGGTKVEIK
modifications: Synthetic: VH AA; Synthetic: VL AA
B1: in experiment [1], the “FGF10-induced FGFR phosphorylation” value is “little or no down-regulation”. Also, the ka amounted to 80600 M⁻¹ s⁻¹ in experiment [2] (antibody captured), 8.16E+04 M^−1S^−1 with human FGFR2b [5] and 8.37E+04 M^−1S^−1 in the experiment on Cyno FGFR2b [9]. Moreover, the kd is 0.00112 s⁻¹ in experiment [2] (antibody captured), 1.78E−03 S^−1 with human FGFR2b [5] and 1.72E−03 S^−1 on Cyno FGFR2b [9]. Further, the values for the Kd (in experiment [2] (koff/kon); with human FGFR2b [5]) were 13.9 nM and 21.8 nM, respectively. For the same molecule, the “Emax (A450)” value is listed as 2.953 A450 in the experiment with Cyno FGFR2b [3], 2.993 A450 with human FGFR2b [4] and 0.086 A450 in the experiment with Human FGFR2c [6]. Also, the EC50 with human FGFR2b [4] amounted to 0.0518 nM; in the experiment with Mouse FGFR2b it was 4.25 nM; in the experiment with human FGFR2b [7], 3.29 nM. Besides, the “Emax (MFI)” value in the experiment with Mouse FGFR2b came out at 5145011 MFI; in the experiment with human FGFR2b [7] it was 2977577 MFI; in the experiment with Human FGFR2c [8] it was 21749 MFI. For the same molecule, in the experiment with human FGFR2b [5], the Rmax is listed as 38.3 RU. Further, the “binding to human FGFR2c” value in the experiment with Human FGFR2c [6] was “no detectable binding”. In the experiment with Human FGFR2c [8] (living Expi293 cells, in words), the “binding to native human FGFR2c” value is “no detectable binding”.

B2: BGAm1823: parental murine anti-FGFR2b antibody; VH SEQ ID NO: 28, VL SEQ ID NO: 30 (antibody, V domains shown)
VH: EVQLQQSGAELVKPGASVKISCKASGYAFSIYWMNWVKQRPGKGLEWIGQIYPENGDTNYNGKFKGKATLTADKSSSTAYMHLSSLTSEDSAVYFCARGGFDYWGQGTTLTVSS
VL: NIVMTQSPASLSASVGETVTITCRASENIYSNLAWYQQKQGKSPQLLVYTATNLADGVPSRFSGSGSGTQFSLKINSLQPEDFGSYYCQHFYGILYTFGSGTRLEIK
modifications: Synthetic: VH AA; Synthetic: VL AA
With B2, the “FGF7-induced FGFR phosphorylation” value in experiment [1] (FGF7 10 ng/ml) is “down-regulation of phosphorylated FGFR”. In addition, in experiment [1], the “FGF10-induced FGFR phosphorylation” value is given as “down-regulation of phosphorylated FGFR”. Further, the “Emax (A450)” value in the experiment on Cyno FGFR2b [3] came out at 2.996 A450. In the experiment with human FGFR2b [4], the EC50 amounted to 0.0442 nM and the “Emax (A450)” value was determined as 2.952 A450. Also, the “inhibition of FGF7-induced BaF3_hFGFR2b cell proliferation” value in the experiment on BaF3_hFGFR2b OE cells (FGF7 40 ng/ml) is reported as “potently inhibit”. Further, the “inhibition of FGF10-induced BaF3_hFGFR2b cell proliferation” value in the experiment with BaF3_hFGFR2b OE cells (FGF10 40 ng/ml) is recorded as “potently inhibit”. Also, in the experiment with Mouse FGFR2b, the 50% effective concentration (EC50) was determined as 3.37 nM and the “Emax (MFI)” value is on record as 5194795 MFI. Moreover, in the experiment with human FGFR2b [5], the Rmax is 85.7 RU, the ka worked out at 7.63E+04 M^−1S^−1, the kd is 1.85E−03 S^−1 and the Kd was found to be 24.2 nM. In the experiment with Human FGFR2c [6], the “Emax (A450)” value came out at 0.116 A450 and the “binding to human FGFR2c” value is given as “no detectable binding”. In the experiment with human FGFR2b [7], a half-maximal response (EC50) required 2.12 nM and the “Emax (MFI)” value is listed as 3092441 MFI. In addition, the “Emax (MFI)” value with Human FGFR2c [8] came out at 22634 MFI. In the experiment with Cyno FGFR2b [9], the ka is given as 7.35E+04 M^−1S^−1 and the kd was determined as 1.80E−03 S^−1.

The record behind these values is patent US20250222125A1, “Anti-FGFR2b Antibodies, Conjugates and Methods of Use” (BeiGene, Ltd., priority 2024, published 2025).
